Test: soluble on expression in E. coli; label from the status in PepcDB or PDB records

Sequence	soluble on expression in E. coli
MAHHHHHHMIGLKSMAGVRDVVRGGSWPARLLDMFTSRAAQESFEFEAVVTDACAAANVPVPSEADLPHARWWKKLCRACQDKAGTTKHGSQLLRSRLTNALTQRLAVEEVYRLNGGEIAKEPAVENPIVIMGLPRSNGHMAAHVLARSGLFLTPRQCDTLSPSLLLDVERRDAFRKKFRGFSYLHPDFLCVRVPQADQVDDDLTLHLMTPQSYAWGLLHGLDEYLLECLEEDQLPVYSEVRRVMELLQWYRKCGHFSEPVTREFNPIDNAMELQAYGTKNVLLRPQWLLYSPFAILSPDAVNTAFPKMKAIWVHRALSQCLPSLCSALCLHNTLYTGKPPSDSQLASMGEKVLGIFGSGTAYAIEYYGKFDQRRMAHWSNRDVKRHATRVATKTLDYFSVELDRYRRMQMISGQTEYVSVSRPLHDAQMPYFCLHDGIIGDVFQDYIYQFAEFAFEKKFGITVKEYTPLAAPADAMAMRGIAHGSSEPRSAPALGAGQPMVGHFQQERRGFR	not soluble
MSLKAIAKLRDHCIVCGYGRIGSVVAKELMEEGVALVVIENDPAMIEALETEGILHLAGDATNDELLQAAGIERARALVAALSLDSANVYVVLSAHQINPSMTIVARASEPSHIGKLKLAGADRVFLPHHLGGLRMAQSILRPTVTSFIELAHTRSDLSIQMEELEIGDDSVLVGKTLIESGIRPQYNLIIIGVKRPDGTMHFNPESTYTLQARDTLIAVGFPENFKQFQEILEGHHHHHH	soluble
MASSKNYLEFVLEQLSGLDDVTYRSMMGEYILYFRGKIIGGIYDDRFLVKPVQAVLDKIDQSSFEFPYKGAKEMI	not soluble
MPNDLPLLPPKNQHKHLDKTMISLPSDFRHLAHVGPMGSSEIENLRTSDNVIDTVNESSYYIRPSSSNSTLRSQRKEKDRVGLDDAFPSASKSEEEVEVVRGYENQPTSHQYINIAPPRPSKKNYKAPAPPTPPPQNSKPNLIFNAQDDEEETSEISEQPVVFRSISHTSNISTHIAPPPKIQTADRIVAPKPNSLVIERPGDLGGAFSFGLDDCIPIVKSTPPLNTLSPLHRPLAIPKNQEETPILSPASPPDDSNYMSTIRSTSVQGRKILDELDDWLDDLDDLDRDQLSTISTDESGYPTLALEKDRAFMKHLVEKYELGVAPETIRLRKKKGPAPKAPSLPPDLSSPTFQAPGFIPAFSARPVSMPPNRPPPSYEAPSFDAPEAPGTVLINGRALTKQNALDLRSSDESGVPPAIARFLYDKRIKSATMPMSIGRMTSSSGNTDVSTTSSRSNADTVSSILSTVGEDDDVEVLKRDREVEEEFVPPVPKPRSRKTVSTEPLKEEEEENVEEEIKGENVIGEEFQVVGDTKINDEQEDRVEATKDKINDAFIMLPPPSAAAMIPSDSESEDDDNFIITRF	not soluble
MEQQRDFDSALAWHRKAKCAGKAGSADVLPGHDKDANAARVVELCAMCADCPVFEQCGREAIAEPFLTLGVVRAGIPDTTQSKSKQKKLLQQVIDEGVPPPVALIMALKDRKGYEGALVGLAGLYEAYRGVYV	not soluble
MKSQPYTASSVTSTSTTHHPWMPISLREPPSKFQKLSTSDAAPLHNVCSSLKMKSTKPSRKRPSPKESDLPPLPSISTLFDSGSSSHSSSSSSNSSYGSYCQFSPEGSYTMYHWPMNYIPYVSPDVTITATTSTSTNAMASPDPIMLSSPPKQPTIEHTPINQPLFIQTADYPYDYSAPDPTGGYPSSATINANQLLLRPVPNGHV	not soluble
MLSSSEKVAGQGVSGAYRELVRLLHRAAKDQLIVTENLPIEADVTHFHTIDFPYYLSTFQKKRSGRKIGYVHFLPATLEGSLKIPFFLKGIVKRYVFSFYNRMEHLVVVNPMFIEDLVAAGIPREKVTYIPNFVNKEKWHPLPQEEVVRLRTDLGLSDNQFIVVGAGQVQKRKGIDDFIRLAEELPQITFIWAGGFSFGGMTDGYEHYKKIMENPPKNLIFPGIVSPERMRELYALADLFLLPSYNELFPMTILEAASCEAPIMLRDLDLYKVILEGNYRATAGREEMKEAILEYQANPAVLKDLKEKAKNISREYSEEHLLQIWLDFYEKQAALGRK	not soluble
MIWIINISWMHSIFDFISMLINRNHFSKWSISNGRHVSFCNWVFTYTNICSKSFNYRRRSCFKNISISYPFCRIHSIFNKFFTYFIISNCSCPTHRLFCIWRSLFTRSLEHHHHHH	not soluble
MSLTEEFVNKEDALKNYNAKEFRTPDGYTSDMILTTVKELNGKPTLHILLIKRSLTNAEGKPNMEGGKWAVPGGFVDENESAEQAAERELEEETSLTDIPLIPFGVFDKPGRDPRGWIISRAFYAIVPPEALEKRAAGDDAAEIGLFPMTEALELPLAFDHLDMLKKAFSAITEEFLLTTAIRDFLPETFSAELLYQTLEGCTKPGILPDEVEFMENIEYLPYLEKVGDLYRFNADAEAGSIYFEGHHHHHH	soluble
MDIKKFVARRKALQISQIKLSAGICTQATLSKFERRGRVPSLAILEQLCARLGLTVDELNEDQASSVTQMRQELDHIERQLMMEDYQVVLQALNRIAVSEIAAVPLRMQYYYLSGLLKSLINGAVSDVCFDFDQILDDLDQTHETVFTPLAYVGLGVMYSRLSELAKAQFYFEKVHQAVKQALVNGDDQDYLRLLTMIFYTAEYEATREDFTTSNGLINDGVSLCSEQHVTYYLPRLKYLATANAIQQCQPDEQIQQLLSETVAFARINHNQVVEVKAAALRRRYLQARKHA	not soluble
MTQIIKIDPLNPEIDKIKIAADVIRNGGTVAFPTETVYGLGANAFDGNACLKIFQAKNRPVDNPLIVHIADFNQLFEVAKDIPDKVLEIAQIVWPGPLTFVLKKTERVPKEVTAGLDTVAVRMPAHPIALQLIRESGVPIAAPSANLATRPSPTKAEDVIVDLNGRVDVIIDGGHTFFGVESTIINVTVEPPVLLRPGPFTIEELKKLFGEIVIPEFAQGKKEAEIALAPGMKYKHYAPNTRLLLVENRNIFKDVVSLLSKKYKVALLIPKELSKEFEGLQQIILGSDENLYEVARNLFDSFRELDKLNVDLGIMIGFPERGIGFAIMNRARKASGFSIIKAISDVYKYVNI	soluble
MIDGAEVSVSRGKNNPFYFNSDRWFHTLFRNQFGHLRVLQRFDQRSKQMQNLENYRVVEFNSKPNTLLLPHHADADFLLVVLNGRAVLTLVNPDGRDSNILEQGHAQKIPAGTTFFLVNPDDEENLRIIKLAVPVNNPHRFQDFFLSSTEAQQSYLQGFSKNILEASFDSDIKEISRVLFGEEGQQQQQGQESQQEGVIVELKREQIRELTKHAKSSSKKSLSSEDQPFNLRNQKPIYSNKLGRWFEITPEKNPQLRDLDMFIRSVDMKEGSLLLPHYNSKAIVILVINEGKANIELVGQREQQKQQEEQEESWEVQRYRAELSEDDVFIIPATYPVAINATSNLNFFAFGINAENNQRNFLAGEKDNVISEIPTEVLDVTFPASGEKVQKLIKKQSESQFVDAQPEQQEREEARKGGKGPFVY	soluble
MVQREKARDNFEGGCLAELIGSPRDWKCFLAVPDPLLGVQHWLHLWRPQTKDGNSLHRHGDQAWGKHRRQNSLKSPALSGHSIDYHFYPRLRCGMLIGPDKQAVASGLEVLVTSSTKILGQLFPDAAHFLEEASEFKAE	soluble
MALDQSLVGRSYPPTAPYEVGREKIREFAEAVGDANPAYTDAEAAKALGHPDVIAPPTFVFSITFKAAGQVIEDPQLGLDYSRVVHGDQKFSYARPVRAGDRLTVTSTIEAIKSMAGNDILDIRGEVHDEAGEHVVTAWTKLVARAAEEALEHHHHHH	soluble
MALGLKCFRMVHPTFRNYLAASIRPVSEVTLKTVHERQHGHRQYMAYSAVPVRHFATKKAKAKGKGQSQTRVNINAALVEDIINLEEVNEEMKSVIEALKDNFNKTLNIRTSPGSLDKIAVVTADGKLALNQISQISMKSPQLILVNMASFPECTAAAIKAIRESGMNLNPEVEGTLIRVPIPQVTREHREMLVKLAKQNTNKAKDSLRKVRTNSMNKLKKSKDTVSEDTIRLIEKQISQMADDTVAELDRHLAVKTKELLG	soluble
MGSDKIHHHHHHMVKYSGVCILFGAGGGGENALSLLKLEGCNISAIVDNDLKKHNTFLDDTPIYAPEKLNCDLIFDKILIASGYSKSILAQLGQYNISQERIIVLPQYYLKPNRFSDQVLYSLAWDFIFSFSELMNKLNIRYWLDYGTLLGLVRDNDLISWDSDLDFCILDENKGYLINSFSVISEHISSTIGCDVKIELIKGAECEHSRVFISCNRDNVILDIDVFIKFNFSNFVCLEVMDRVERYNAEHYVAVDFLNVKGISLPVPNKYDQYLTRVYGSWCVANKEWTLYS	not soluble
MAHHHHHHMVENELLYENDVSNSGLDGKPRLHSFFNKDGLLLRTYSWTVKKAIGIFLLIHGLNGHVRLQYLRQNVEVISNDKAILKDQDNYYVYKDSWIEKLNDKGYSVYGIDLQGHGLSEGWENLKANINNFDDLVYDVIQYLEEINRTVCLDYERNKYLRAIREKNTDMKALKKDKIPIYIMGLSMGGNVVLRTLELLGKSGDYKNLNIKGCISLSGMICLEELSSKASMKYKYFLVPFSKFISYIFPKCRINQNFNFEMFPFVNDIINFDKHRSKKWITFKFGHQILRSITNLRKDIQYIPKDIPILFVHSIHDCACYYGGVVTFYDQLDNDKKELYTIYDMDHLLTMEPGNEKVLEKVLDWISGSFNNKRRRRRTSS	not soluble
MGSSHHHHHHSSGEDRYKEKLLQKAKAEGVESIEELKKRLADQIEEKKKELNKIDPLRELEQHLNAGSRIHTNKEHKTTKMSNKSNEKSGNVLPKDKPYKTLDDYLKLDKIKDLSKQEVEFLWRAKWSNRDDSLVAVVPYVKTFQGMYKYAVKNPLFVLPLPRENAADGNKADKDSVPVELQYVQWQFAGPNTVHCLITSLAEYKLHQDFAKPHTTIQFHLDLANDKDMVLMNGQVESDSNVSLQDAQLLLLNVQRFYGAMGSETSIAKERIQLLEDFNKGSQNFDINKLIQLAQSMEN	soluble
GPGSMQRSTRIVMAPFKSVLRRHKHHPEGLPLYNDMSKQWLCREGERWWLLDARGEQLPRVAAVAAQYITGQHRPDFTPGMITGDHVVIVNIKDVVMVGDQWIRVPITWQTAYPGGKYRIRLTDMYERDPCMLMWWFLKDEVNRHFVRKLKTRIAPLEKAWLYEDSIHPHADKNPRPLCWTDPEVKGWKYRDPQFIRRWKPNEFMH	not soluble
MTTTTLTVPFRFDVVGSLLRPASLKKAHEQLAAGTITRDQELEIQHTEIKRVVAEQVKLGLKAVTDGEFSRSWWHLDFLWGLTGVGKYDYHQSYKFKGDHTRTDNAELIGKVAYNPDHPFFAAFEYLQSIVPAGVLAKQTIPSPTMLFRDNRSDNWTKFYDSWDAYLNDLAQAYHDTIQHFYDLGCRYIQLDDTTWAFLISKLNDPEADHAAYTKWATDAVTVINAALADLPSDLTVTTHICRGNFKSTYLFSGSYDVVAPYLGQLNYDGLFLEYDNERAGGFEALDQIWNHDDHKRIVLGLVTSKFPELEKTTVIKERVQAATTKVPLRNLALSTQCGFASTEEGNQLTEAQQWAKLALVIGTAKEVWSEALEHHHHHH	not soluble
MGHHHHHHSHDDSSEWGNSFFWNQLLHVPLRQHQVSCCDWLLKIICGVVTIRTVYASHKQAKACLVSRVSCERTGTRFHTRGVNDDGHVSNFVETEQMIYMDDGVSSFVQIRGSVPLFWEQPGLQVGSHHLRLHRGLEANAPAFDRHMVLLKEQYGQQVVVNLLGSRGGEEVLNRAFKKLLWASCHAGDTPMINFDFHQFAKGG	not soluble
RNKVKYIELLGKELEILKGGDLNYQITIRGNDELAALAGEMDSMRRAIRSRQEEEELAHLANRGIVTAMSHDLRTPLTALMGYLDILSIEEDPGKKQKYLSVCRDKACQIKSLSDKLFEYFLVYSSDQDELHADEVNGAEFVGQIVEESLFDLENEGIEVARRAGEITCRLLVDVDLMRRVFGNLFSNILKYADRSHAVQAEYGETKDELVIRLRNSVAADASERESSNIGLKTCETILKRHGGTFLYQKDAGMFEAEVRIPCIRE	not soluble

Source: the DeepSol protein solubility set
